From the supplement of paper PMC10567573

B1: PLD5 (parent)
chain: KRTYWPDLDAKIREALVLRSVRVR

Variants of: B1
Assay: protein stability index of a GFP-peptide fusion (GPS, HEK-293T) (PSI 1-6); higher = more stable
Conditions: c terminus: a fixed tail appended
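Further: lentivirally expressed fusions sorted by FACS into six bins by GFP to DsRed ratio, PSI derived from sequencing read proportions per bin multiplied by bin number.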

| Variant | protein stability index |
| --- | --- |
| KRTYWPDLDAKIREALELRSVRVR [V17E] | 1.6 |
| KRTYWPDLDAKIREALHLRSVRVR [V17H] | 3.18 |
| KRTYWPDLDAKIREALILRSVRVR [V17I] | 1.11 |
| KRTYWPDLDAKIREALQLRSVRVR [V17Q] | 1.57 |
| KRTYWPDLDAKIREALNLRSVRVR [V17N] | 5.34 |
| KRTYWPDLDAKIREALRLRSVRVR [V17R] | 1.32 |
| KRTYWPDLDAKIREALLLRSVRVR [V17L] | 1.91 |
| KRTYWPDLDAKIREALMLRSVRVR [V17M] | 2.18 |
| KRTYWPDLDAKIREALKLRSVRVR [V17K] | 1.79 |
| KRTYWPDLDAKIREALGLRSVRVR [V17G] | 2.11 |
| KRTYWPDLDAKIREALWLRSVRVR [V17W] | 1.3 |
| KRTYWPDLDAKIREALSLRSVRVR [V17S] | 1.95 |
| KRTYWPDLDAKIREALTLRSVRVR [V17T] | 1.57 |
| KRTYVPDLDAKIREALVLRSVRVR [W5V] | 4.52 |
| KRTYTPDLDAKIREALVLRSVRVR [W5T] | 1.58 |
| KRTYWPDLDAKIREQLVLRSVRVR [A15Q] | 2.04 |
| KRTYWPDLDAKIREWLVLRSVRVR [A15W] | 1.62 |
| KRTYWPDLDAKIREKLVLRSVRVR [A15K] | 1.9 |
| KRTYWPDLDAKIREYLVLRSVRVR [A15Y] | 2.11 |
| KRTYWPDLDAKIREPLVLRSVRVR [A15P] | 1.67 |
| KRTYWPDLDAKIRETLVLRSVRVR [A15T] | 1.72 |
| KRTYWPDLDAKIREVLVLRSVRVR [A15V] | 1.04 |
| KRTYWPDLDAKIREELVLRSVRVR [A15E] | 2.26 |
| KRTYWPDLDAKIRENLVLRSVRVR [A15N] | 1.51 |

| Variant | protein stability index |
| --- | --- |
| KRTYWPDLDTKIREALVLRSVRVR [A10T] | 2.33 |
| KRTYWPDLDYKIREALVLRSVRVR [A10Y] | 2.61 |
| KRTYWPDLDIKIREALVLRSVRVR [A10I] | 2.54 |
| KRTYWPDLDFKIREALVLRSVRVR [A10F] | 1.52 |
| KRTYWPDLDHKIREALVLRSVRVR [A10H] | 3.11 |
| KRTYWPDLDLKIREALVLRSVRVR [A10L] | 2.05 |
| KRTYWPDLDPKIREALVLRSVRVR [A10P] | 2.36 |
| KRTYWPDLDVKIREALVLRSVRVR [A10V] | 1.93 |
| KRTYWPDLDAKIREALVLRSVCVR [R22C] | 2.32 |
| KRTYWPDLDAKIREALVLRSVEVR [R22E] | 2.02 |
| KRTYWPDLDAKIREALVLRSVSVR [R22S] | 2.14 |
| KRTYWPDLDAKIREALVLRSVHVR [R22H] | 1.51 |
| KRTYWPDLDAKIREALVLRSVDVR [R22D] | 2.31 |
| KRTYWPDLDAKIREALVLRSVLVR [R22L] | 1.4 |
| KRTYWPDLDAKIREALVLRSVYVR [R22Y] | 1.61 |
| KRTYWPDLDAKIREALVLRSVPVR [R22P] | 1.65 |
| KRTYWPDLDAKIREALVLRSVTVR [R22T] | 1.59 |
| KRTYWPDLDAKIREALVLRSVVVR [R22V] | 2.14 |
| KRTYWPDLDAKIREALVLRSVKVR [R22K] | 1.99 |
| KRTYWPDLDAKIREALVLRSVGVR [R22G] | 1.65 |
| KRTYWPDLDAKIREALVLRSVAVR [R22A] | 1.45 |
| KRTYWDDLDAKIREALVLRSVRVR [P6D] | 1.28 |
| KRTYWCDLDAKIREALVLRSVRVR [P6C] | 1.06 |
| KRTYWWDLDAKIREALVLRSVRVR [P6W] | 3.99 |

| Variant | protein stability index |
| --- | --- |
| KRTYWHDLDAKIREALVLRSVRVR [P6H] | 1.96 |
| KRTYWSDLDAKIREALVLRSVRVR [P6S] | 1.67 |
| KRTYWFDLDAKIREALVLRSVRVR [P6F] | 2.23 |
| KRTYWKDLDAKIREALVLRSVRVR [P6K] | 1.25 |
| KRTYWQDLDAKIREALVLRSVRVR [P6Q] | 3.34 |
| KRTYWGDLDAKIREALVLRSVRVR [P6G] | 1.82 |
| KRTYWADLDAKIREALVLRSVRVR [P6A] | 2.54 |
| KRTYWPDLDAKIREALVLSSVRVR [R19S] | 1.8 |
| KRTYWPDLDAKIREALVLESVRVR [R19E] | 1.69 |
| KRTYWPDLDAKIREALVLNSVRVR [R19N] | 2.8 |
| KRTYWPDLDAKIREALVLKSVRVR [R19K] | 1.45 |
| KRTYWPDLDAKIREALVLHSVRVR [R19H] | 1.48 |
| KRTYWPDLDAKIREALVLCSVRVR [R19C] | 2.36 |
| KRTYWPDLDAKIREALVLTSVRVR [R19T] | 2.53 |
| KRTYWPDLDAKIREALVLQSVRVR [R19Q] | 2.53 |
| KRTYWPDLDAKIREALVLYSVRVR [R19Y] | 2.67 |
| KRTYWPDLDAKIREASVLRSVRVR [L16S] | 2.51 |
| KRTYWPDLDAKIREAPVLRSVRVR [L16P] | 2.02 |
| KRTYWPDLDAKIREAYVLRSVRVR [L16Y] | 2.06 |
| KRTYWPDLDAKIREADVLRSVRVR [L16D] | 2.8 |
| KRTYWPDLDAKIREAHVLRSVRVR [L16H] | 2.94 |
| KRTYWPDLDAKIREAWVLRSVRVR [L16W] | 3.86 |
| KRTYWPDLDAKIREANVLRSVRVR [L16N] | 2.61 |
| KRTYWPDLDAKIREAGVLRSVRVR [L16G] | 1.31 |

| Variant | protein stability index |
| --- | --- |
| KRTYWPDLDAKIREAIVLRSVRVR [L16I] | 1.95 |
| KRTYWPDLDAKIREAVVLRSVRVR [L16V] | 2.53 |
| KRTYWPDLEAKIREALVLRSVRVR [D9E] | 2.54 |
| KRTYWPDLHAKIREALVLRSVRVR [D9H] | 2.57 |
| KRTYWPDLNAKIREALVLRSVRVR [D9N] | 1.59 |
| KRTYWPDLGAKIREALVLRSVRVR [D9G] | 2.88 |
| KRTYWPDLDAKHREALVLRSVRVR [I12H] | 2.19 |
| KRTYWPDLDAKRREALVLRSVRVR [I12R] | 2.78 |
| KRTYWPDLDAKEREALVLRSVRVR [I12E] | 2.76 |
| KRTYWPDLDAKCREALVLRSVRVR [I12C] | 2.29 |
| KRTYWPDLDAKQREALVLRSVRVR [I12Q] | 2.54 |
| KRTYWPDLDAKAREALVLRSVRVR [I12A] | 2.01 |
| KRTYWPDLDAKKREALVLRSVRVR [I12K] | 2.41 |
| KRTYWPDLDAKFREALVLRSVRVR [I12F] | 1.93 |
| KRTYWPDLDAKMREALVLRSVRVR [I12M] | 2.38 |
| KRTYWPDLDAKYREALVLRSVRVR [I12Y] | 1.29 |
| KRTYWPDLDAKLREALVLRSVRVR [I12L] | 1.81 |
| KRTYWPDLDAKDREALVLRSVRVR [I12D] | 1.43 |
| KRTYWPDLDAKTREALVLRSVRVR [I12T] | 2.7 |
| KRTYWPDLDAKVREALVLRSVRVR [I12V] | 2.3 |
| KRTYWPPLDAKIREALVLRSVRVR [D7P] | 3.44 |
| KRTYWPMLDAKIREALVLRSVRVR [D7M] | 2.84 |
